The source of these data is US20220064275A1 (SCHOLAR ROCK, published 2022).

Substitutions are numbered along the chain they refer to.

To fix the notation:
B1: Ab6 Fab (Fab, V domains shown)
VH: EVQLVESGGGLVQPGGSLRLSCTASGFTFSSFSMDWVRQAPGKGLEWVSYISPSADTIYYADSVKGRFTISRDNAKNTLYLQMNSLRAEDTAVYYCARGVLDYGDMLMPWGQGTLVTVSS
VL: DIQMTQSPSSLSASVGDRVTITCQASQDITNYLNWYQQKPGKAPKLLIYDASNLETGVPSRFSGSGSGTDFTFTISSLQPEDIATYYCQQADNHPPWTFGGGTKVEIK
notes: Fab of Ab6
B2: Ab19 (antibody, IgG4, V domains shown)
VH: QVQLVESGGGVVQPGRSLRLSCAASGFTFSSFAMTWVRQAPGKGLEWVSAISGSGAATYFADSVKGRFTISRDNSKNTLYLQMNSLRAEDTAVYYCARVSSGHWDFDEWGQGTLVTVSS
VL: DIQLTQSPSSLSASVGDRVTITCRASQSISSYLNWYQQKPGKAPKLLIYAASNLQSGVPSRFSGSGSGTDFTLTISSLQPEDFATYYCQQTYTVPLTFGGGTKVEIK
B3: Ab20 (antibody, IgG4, V domains shown)
VH: EVQLLESGGGLVQPGGSLRLSCAASGFTFSAYAMTWVRQAPGKGLEWVSAISGSGGVTYYADSVKGRFTISRDNSKNTLYLQMNSLRAEDTAVYYCARVSSGHWDYDYWGQGTLVTVSS
VL: B2 VL
B4: Ab35 (antibody, IgG4, V domains shown)
VH: B3 VH with S30R, A31N, T35S, A50S, V57A, G102Y, H103L, Y106F
VL: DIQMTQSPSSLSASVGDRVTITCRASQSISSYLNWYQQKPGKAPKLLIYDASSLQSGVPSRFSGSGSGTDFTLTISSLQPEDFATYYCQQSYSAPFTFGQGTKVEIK
B5: Ab4 (antibody, IgG4, V domains shown)
VH: B1 VH with T23A, F32Y, D35N, P53S, A55S, D56S, T78S, M108D
VL: B1 VL
notes: also called parental lead antibody of Ab6

The target of one assay is T1, human proTGFβ1 C4S (human, UniProt P01137 30-390).
T1 construct: Small latent complex without presenting molecule; the cysteine that links to presenting molecules is changed to serine; also called small latent complex proTGFβ1 C4S; latent TGFβ1
T1 sequence (P01137 other isoform, or with tags, fused parts or gaps): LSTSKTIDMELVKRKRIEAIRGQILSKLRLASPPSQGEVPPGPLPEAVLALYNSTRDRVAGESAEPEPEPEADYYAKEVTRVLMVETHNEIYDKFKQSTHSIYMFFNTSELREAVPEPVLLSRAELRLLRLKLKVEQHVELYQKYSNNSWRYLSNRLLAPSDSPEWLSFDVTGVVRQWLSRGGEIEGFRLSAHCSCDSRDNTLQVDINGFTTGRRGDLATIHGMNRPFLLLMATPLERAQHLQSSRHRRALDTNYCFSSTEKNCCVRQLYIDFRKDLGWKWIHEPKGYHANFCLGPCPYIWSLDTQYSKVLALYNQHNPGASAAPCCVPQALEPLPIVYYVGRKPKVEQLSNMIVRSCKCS
In words: HDX-MS.
Protocol: In the non-deuterated experiments, each sample was mixed with sample buffer (1:15, v/v) at room temperature, then mixed with 1:1 (v/v) quenching buffer (100 mM sodium phosphate, 4 M guanidine HCl, 0.5 M TCEP) at 0° C. Quenched samples were immediately injected into a nanoACQUITY UPLC™ system with HDX technology (Waters Corp., Milford, Mass., USA) for on-column pepsin digestion. The eluent was directed into a SYNAPT® G2 HDMS mass spectrometer (Waters Corp., Milford, Mass., USA) for analysis in MSE mode. For H/D exchange experiments, each sample was mixed with labeling buffer (20 mM HEPES, 150 mM NaCl in deuterium oxide, pD 7.5) (1:15, v/v) to start the labeling reactions at 25° C. Five aliquots of each sample were labeled at various time intervals: 10 s, 1 min, 10 min, 1 h, and 2 h. At the end of each labeling time point, the reaction was quenched by adding 1:1 (v/v) quenching buffer, and the quenched samples were injected into the Waters H/DX-MS system for analysis. Between each sample run, a clean blank was run by injecting pepsin wash buffer (1.5 M guanidine HCl, 4% acetonitrile, 0.8% formic acid) into the H/DX-MS system.
In HDX-MS, the regions of an antigen that are tightly bound by an antibody are protected from proton exchange, due to protein-protein interaction, while regions that are exposed to solvent can readily undergo proton exchange. […]
Take B1: the binding result is listed as “binds”.

The target of the next assay is T2, human LTBP1-proTGFβ1 complex (human, UniProt Q14766 873-1507).
T2 construct: range 873-1507; biotinylated in Octet and MSD-SET; also called hLTBP1-proTGFβ1; hLTBP1
The assay is described as follows: BLI (Octet). A general note: BLI is a label-free optical method that tracks binding on a fibre tip over time.
Consider B2, for which the dissociation constant Kd (commonly the concentration at which binding is half-saturated) came out at 0.189 nM.
As for B3, the dissociation constant (Kd) worked out at 0.192 nM.
The same measure, in the same setting: in the case of B4 it was 0.159 nM.

The target of the next assay is T3, human LTBP3-proTGFβ1 complex (human, UniProt Q9NS15 866-1039).
T3 construct: range 866-1039; also called hLTBP3-proTGFβ1; hLTBP3
T3 sequence (Q9NS15 866-1039 limits assumed, chain 1 of 2): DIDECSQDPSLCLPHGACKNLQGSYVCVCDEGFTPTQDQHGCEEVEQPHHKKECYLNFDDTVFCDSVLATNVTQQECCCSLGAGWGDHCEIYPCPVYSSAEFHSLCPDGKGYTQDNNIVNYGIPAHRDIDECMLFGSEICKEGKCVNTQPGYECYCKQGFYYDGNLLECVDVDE
T3 sequence (chain, as listed by the source limits assumed, chain 2 of 2): as the sequence (P01137 other isoform, or with tags, fused parts or gaps) above, with S4C counted along it
In words: BLI (Octet).
B2 registered a Kd of 0.156 nM.
On the same count and under the same terms, in the case of B3 it was 0.131 nM; in that of B4, 0.169 nM.

The target of the next assay is T4, human GARP-proTGFβ1 complex (human, UniProt Q14392 20-627; P01137 30-390).
T4 construct: also called hGARP-proTGFβ1; hGARP
T4 sequence (Q14392 20-627, chain 1 of 2): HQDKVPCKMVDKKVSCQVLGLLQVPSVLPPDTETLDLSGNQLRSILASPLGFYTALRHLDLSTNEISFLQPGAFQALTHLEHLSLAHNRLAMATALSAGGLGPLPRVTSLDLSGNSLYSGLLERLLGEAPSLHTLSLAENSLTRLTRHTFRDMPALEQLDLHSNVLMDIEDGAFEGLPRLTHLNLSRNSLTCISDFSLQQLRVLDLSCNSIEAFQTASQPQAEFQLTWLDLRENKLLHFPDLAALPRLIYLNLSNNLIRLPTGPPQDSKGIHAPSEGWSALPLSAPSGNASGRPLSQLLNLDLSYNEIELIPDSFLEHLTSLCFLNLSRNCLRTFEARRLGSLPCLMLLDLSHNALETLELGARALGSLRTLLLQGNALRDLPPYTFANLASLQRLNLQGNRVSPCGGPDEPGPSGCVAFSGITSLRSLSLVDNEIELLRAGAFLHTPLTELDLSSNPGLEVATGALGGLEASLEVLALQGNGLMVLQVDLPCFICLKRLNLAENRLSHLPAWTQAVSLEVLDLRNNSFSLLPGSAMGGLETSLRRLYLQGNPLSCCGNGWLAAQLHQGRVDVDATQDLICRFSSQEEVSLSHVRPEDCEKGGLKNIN
T4 sequence (P01137 30-390, chain 2 of 2): as the sequence (P01137 other isoform, or with tags, fused parts or gaps) above, with S4C counted along it
The assay is described as follows: BLI (Octet).
For the molecule B2, the Kd was 11.2 nM.
The same measure, in the same setting: in the case of B3 it was 0.884 nM; in that of B4, 7.37 nM.

In another assay the target is T5, human LRRC33-proTGFβ1 complex (human, UniProt Q86YC3 19-650; P01137 30-390).
T5 construct: also called hLRRC33-proTGFβ1; hLRRC33
The assay is described as follows: BLI (Octet).
As for B2, the Kd was 0.692 nM.
The same measure, in the same setting: in the case of B3 it was 0.545 nM.
On the same count and under the same terms, in the case of B4 it was 0.545 nM.

In another assay the target is hLTBP1-proTGFβ1 complex made by transfected cells (cell-based potency assay) (human, UniProt Q14766 347-1721; P01137 30-390). The assay is described as follows: cell-based or functional assay.
hLTBP1-proTGFβ1 complex made by transfected cells (cell-based potency assay), sequence (Q14766 347-1721, chain 1 of 2): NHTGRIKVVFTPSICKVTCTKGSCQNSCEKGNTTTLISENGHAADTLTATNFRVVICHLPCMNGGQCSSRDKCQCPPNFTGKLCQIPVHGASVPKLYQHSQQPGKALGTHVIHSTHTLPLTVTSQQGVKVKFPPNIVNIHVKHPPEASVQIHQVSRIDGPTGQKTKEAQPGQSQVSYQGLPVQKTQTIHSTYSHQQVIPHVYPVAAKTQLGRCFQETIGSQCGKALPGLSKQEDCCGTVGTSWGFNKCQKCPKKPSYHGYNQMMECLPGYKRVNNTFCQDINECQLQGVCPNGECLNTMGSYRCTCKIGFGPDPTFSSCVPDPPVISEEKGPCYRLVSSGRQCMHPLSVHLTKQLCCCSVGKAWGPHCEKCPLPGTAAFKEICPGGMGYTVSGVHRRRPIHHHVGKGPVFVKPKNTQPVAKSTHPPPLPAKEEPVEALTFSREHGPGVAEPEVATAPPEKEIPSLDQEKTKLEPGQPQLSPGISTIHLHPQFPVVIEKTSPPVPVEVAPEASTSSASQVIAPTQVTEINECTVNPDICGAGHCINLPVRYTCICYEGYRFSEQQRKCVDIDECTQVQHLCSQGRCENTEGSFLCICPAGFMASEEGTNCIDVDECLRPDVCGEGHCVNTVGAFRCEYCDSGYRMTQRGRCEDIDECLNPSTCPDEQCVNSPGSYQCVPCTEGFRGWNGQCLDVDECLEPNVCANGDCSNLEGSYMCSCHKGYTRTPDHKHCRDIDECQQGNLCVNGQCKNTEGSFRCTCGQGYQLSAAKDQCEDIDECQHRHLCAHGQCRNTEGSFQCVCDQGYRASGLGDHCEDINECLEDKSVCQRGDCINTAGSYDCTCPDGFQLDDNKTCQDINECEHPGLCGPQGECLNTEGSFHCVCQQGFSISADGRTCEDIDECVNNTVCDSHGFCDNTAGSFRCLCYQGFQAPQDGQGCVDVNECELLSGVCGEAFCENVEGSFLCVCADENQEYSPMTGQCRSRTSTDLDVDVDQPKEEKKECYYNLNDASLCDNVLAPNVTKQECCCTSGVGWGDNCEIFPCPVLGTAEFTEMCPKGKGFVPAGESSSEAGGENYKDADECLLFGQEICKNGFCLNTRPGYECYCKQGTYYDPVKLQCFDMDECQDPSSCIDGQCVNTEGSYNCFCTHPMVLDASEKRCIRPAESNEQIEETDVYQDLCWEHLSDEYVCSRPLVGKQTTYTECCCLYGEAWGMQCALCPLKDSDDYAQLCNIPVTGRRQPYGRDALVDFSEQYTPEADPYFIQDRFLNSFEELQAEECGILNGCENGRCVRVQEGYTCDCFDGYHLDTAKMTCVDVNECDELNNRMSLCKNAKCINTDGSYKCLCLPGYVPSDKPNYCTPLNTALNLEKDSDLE
hLTBP1-proTGFβ1 complex made by transfected cells (cell-based potency assay), sequence (P01137 30-390, chain 2 of 2): as the sequence (P01137 other isoform, or with tags, fused parts or gaps) above, with S4C counted along it
Take B2: the “IC50, reporter cell assay of TGFβ1 activation” value (“IC50, reporter cell assay” for short) was 1.66 nM.
On the same count and under the same terms, in the case of B3 it was 1.85 nM; in that of B5, 5.22 nM.
For the molecule B4, the “IC50, reporter cell assay” value came out at 6.25 nM.

For the next assay, the target named is hLTBP3-proTGFβ1 complex made by transfected cells (cell-based potency assay) (human, UniProt Q9NS15 44-1303; P01137 30-390). The assay is described as follows: cell-based or functional assay.
With B2, the “IC50, reporter cell assay” value came to 1.6 nM.
Still for that read-out and setting: in the case of B3 it was 1.18 nM; in that of B5, 5.65 nM.
Still for that read-out and setting: for B4 the value was 2.71 nM.

For a further assay, the target named is hGARP-proTGFβ1 complex on cells (human, UniProt Q14392 20-662; P01137 30-390). In words: cell-based or functional assay.
hGARP-proTGFβ1 complex on cells, sequence (Q14392 20-662 limits assumed, chain 1 of 2): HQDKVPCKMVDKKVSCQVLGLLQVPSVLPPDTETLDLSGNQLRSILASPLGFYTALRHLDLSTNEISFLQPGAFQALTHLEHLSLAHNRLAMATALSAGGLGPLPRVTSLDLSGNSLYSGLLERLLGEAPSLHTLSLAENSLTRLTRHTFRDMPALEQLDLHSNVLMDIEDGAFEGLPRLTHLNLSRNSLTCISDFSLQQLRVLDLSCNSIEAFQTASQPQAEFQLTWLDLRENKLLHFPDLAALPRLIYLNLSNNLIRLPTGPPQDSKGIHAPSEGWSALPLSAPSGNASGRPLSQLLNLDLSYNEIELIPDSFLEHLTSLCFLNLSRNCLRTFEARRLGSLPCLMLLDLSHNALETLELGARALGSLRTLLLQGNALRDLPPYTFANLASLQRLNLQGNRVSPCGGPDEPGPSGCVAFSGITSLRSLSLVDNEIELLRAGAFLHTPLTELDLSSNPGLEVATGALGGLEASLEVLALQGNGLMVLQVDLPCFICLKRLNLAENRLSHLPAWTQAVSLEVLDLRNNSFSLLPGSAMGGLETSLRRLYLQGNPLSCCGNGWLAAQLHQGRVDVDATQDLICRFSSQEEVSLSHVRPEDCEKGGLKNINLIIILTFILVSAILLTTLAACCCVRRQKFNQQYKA
hGARP-proTGFβ1 complex on cells, sequence (P01137 30-390 limits assumed, chain 2 of 2): as the sequence (P01137 other isoform, or with tags, fused parts or gaps) above, with S4C counted along it
Consider B2, for which the “IC50, reporter cell assay” value turned out to be 1.34 nM.
Regarding B3, the “IC50, reporter cell assay” value turned out to be 0.387 nM.
Still for that read-out and setting: in the case of B5 it was 0.822 nM; in that of B4, 3.71 nM.

A further assay concerns the target hLRRC33-proTGFβ1 complex on cells (human, UniProt Q86YC3 19-692; P01137 30-390). The assay is described as follows: cell-based or functional assay.
As to B2, the “IC50, reporter cell assay” value is 0.401 nM.
Same read-out and setting: for B3 the value was 1.35 nM; for B5, 3.5 nM.
B4: the “IC50, reporter cell assay” value is 5.37 nM.

The next assay has as its target T6, murine GARP-proTGFβ1 complex (mouse, UniProt G3XA59 18-628; P04202 30-390).
T6 construct: Soluble murine complex; also called mGARP-proTGFβ1
In words: BLI screen of human and murine LLCs.
On to B5, for which the binding result is given as “binds”.

The next assay addresses T2, human LTBP1-proTGFβ1 complex. In words: MSD-SET, solution equilibrium titration. As to the method:
(§1) MSD-SET assays were performed to measure affinities of the antibodies at equilibrium. Briefly, each test antibody was diluted 3-5 fold and samples were mixed with biotinylated antigen in a 48-well dish. The SET samples were equilibrated for 20-24 hours at room temperature. Meanwhile, a capture plate was coated with IgG (20 nM) and incubated overnight at 4° C. or 30 minutes at room temperature, followed by a blocking step with 5% BSA. After the capture plate was washed three times, SET samples were added and incubated for 150 seconds. The plate was washed once to remove unbound complexes. 250 ng/ml SA-Sulfotag was added then washed 3 times. 2× Read Buffer was added, and signals from the labeled bound complexes were read with the use of QuickPlex™ SQ 120 instrument.
For B2, binding was characterised by a dissociation constant (Kd) of 2.1 nM.
On the same count and under the same terms, in the case of B3 it was 0.22 nM.
On the same count and under the same terms, in the case of B5 it was 4.6 nM; in that of B4, 0.27 nM.

In another assay the target is T3, human LTBP3-proTGFβ1 complex. The assay is described as follows: MSD-SET, solution equilibrium titration. As to the method:
as §1
The molecule B2 yielded a Kd of 2.7 nM.
The molecule B3 showed a dissociation constant Kd of 0.18 nM.
Still for that read-out and setting: in the case of B5 it was 5.5 nM; in that of B4, 0.26 nM.

The target in another assay is T4, human GARP-proTGFβ1 complex. In words: MSD-SET, solution equilibrium titration. Here is the method: as §1
On to B2, for which the Kd amounted to 3.8 nM.
Still for that read-out and setting: in the case of B3 it was 1.1 nM; in that of B5, 2.5 nM; in that of B4, 1.1 nM.

The next assay deals with T5, human LRRC33-proTGFβ1 complex. The assay is described as follows: MSD-SET, solution equilibrium titration. Here is the method: as §1
Take B2: the equilibrium dissociation constant (Kd) amounted to 5.7 nM.
The same measure, in the same setting: in the case of B3 it was 1.6 nM; in that of B5, 2.1 nM.
As for B4, the affinity, expressed as Kd, was 1.1 nM.
